Measured values: paper PMC3462190, “A Peptidic Unconjugated GRP78/BiP Ligand Modulates the Unfolded Protein Response and Induces Prostate Cancer Cell Death” (PLoS ONE, 2012)
Where no end group is shown, it is not given here.

Legend:
DU145 cells = test: Clonogenic assay; format: cell-based; conditions: 19-mer expressing vector vs vector control; at least three experiments
Method: Figure 6 Selectivity of action of the Bag-1 peptide. A Amino acid sequence of the 19mer peptide and its deletion mutants. B GST pull-down assay performed incubating 400 µg of 22Rv.1 cell lysate and 25 µg of GST-fused deletion mutants of the 19mer peptide. After the pull-down experiment, Western blots were carried out with anti-GRP78/BiP and GST antibodies. C. Fluorescence polarization (FP) assays with a 10 nM FITC-labeled 7-mer Bag-1 peptide and dilutions of the GST-fused substrate binding domain of GRP78 in 60 µl of Tris-GSH buffer (50 mM Tris, 10 mM reduced glutathione and 0.1% BSA, pH 8.0). Triplicate samples were measured after 5 h of incubation at room temperature with an Infinite F-200 reader (Tecan) with excitation at 490 nm and emission at 535 nm. Binding constants were determined from three independent experiments using non-linear regression in Sigma Plot 10.0. D. Competition assays with a complex of 10 nM of FITC-labeled Bag-1 7-mer peptide and 0.75 mg/ml GST-fused GRP78 substrate binding domain was measured against a dilution series from 100 µM to 0.1 nM of wild-type Bag-1 7-mer peptide (filled line) or triple mutant peptide (dotted line) in 40 µl of Tris-GSH buffer. FITC-peptide and the FITC-peptide-protein complex were used as controls. Fluorescence polarization was determined as described above and IC50 values were determined in Sigma Plot. E. Clonogenic assay in 22Rv.1 cells with pcDNA3 based vectors coding for the N-terminal Bag-1 peptide (positive control), the 19mer and the 19mer mutant fragments as well as the empty expression vector (negative control). Cells were transfected with the indicated constructs and selected in medium containing neomycin. The colonies were stained and quantified. Shown as bar chats are the mean ± SEM of at least three independent experiments with three different plasmid preparations. (*p<0.05). F. In vivo luciferase refolding assay was performed in HEK-293 cells transfected at 70% confluency with 2 µg β-actin-fire fly luciferase construct, 3 µg pcDNA3 empty vector as control or pCMV6-GRP78, 6 µg pcDNA3.1-HA-19-mer or 19-mer mutant peptide and 0.5 µg Renilla luciferase construct to determine the transfection efficiency. Shown as bar charts is the mean of at least three different experiments ± SEM (*p<0.05). G. Clonogenic assay with the indicated malignant (LNCaP, DU145, PC3) and benign (BPH1, PNT2, RWPE1) prostate cell lines transfected with the vector control (black bars) and a vector expressing the 19-mer peptide (white bars). Shown are the mean ± SD of at least three different experiments performed with three different plasmid preparations (*p<0.05). H. Western blot analysis of cell lysates derived from the prostate cancer cells used for the colony forming assay with specific antibodies against GRP78 and β-actin.

GADD45 = test: Interaction with GADD45 (results not shown); format: binding
22Rv.1 cells = test: ER-stress induced apoptosis markers, Western blot in 22Rv.1 cells; format: cell-based
Method: Unless otherwise stated, stable transfection was carried out in 22Rv.1 or BPH-1 cells with 10 µg of plasmid DNA using FuGene 6™ (Roche Diagnostics Mannheim, Germany) Stably transfected 22Rv.1 cells were selected with 0.8 mg/ml while BPH-1 cell clones were selected with 1.2 mg/ml G418. LNCaP, PC3, DU145, PNT-2 and RWPE-1 cell clones were selected with 1 mg/ml G418. Specific downregulation of GRP78 expression was achieved by transfecting siRNA-duplexes (GRP78∶5′-[…]-3′) twice in 72 h using HiPerfect™ (Qiagen Hilden, Germany). siRNA against GFP (5′-[…]-3′) was used as a control. Western blot analysis was performed as previously described.
Figure 3 The Bag-1 peptide modulates the UPR and sensitizes 22Rv.1 cells to ER-stress. A. UPR modulation upon Bag-1 peptide overexpression. Pooled clones of 22Rv.1 cells transfected with pcDNA3.1-HA-Bag-1 68 amino acid peptide or an empty expression vector were treated with 300 nM thapsigargin (TG) for the indicated time points. Cells were lysed and subjected to Western blot analysis using the indicated antibodies or phospho-specific antibodies. B. The Bag-1 peptide sensitizes 22Rv.1 cells to ER-stress induced apoptosis. Pooled clones of 22Rv.1 transfected with the Bag-1 peptide or the empty expression vector were treated with thapsigargin (TG) or glucose-starved (GS) for 24 h. The cells were lysed and subjected to Western blot analysis using anti-PARP and caspase 4 specific antibodies. Anti-HA antibody was used to detect the HA-Bag-1 peptide. […] C. […] Pooled clones of 22Rv.1 expressing HA-tagged Bag-1 peptide or an empty expression vector were transfected with GRP78/BiP siRNA or control GFP siRNA. The cells were lysed and Western blot was carried out with anti-PARP, anti-GRP78 and anti-HA antibodies. β-actin antibody was used to determine the level of protein loaded on the gel.
Supplementary file pone.0045690.s005.tif: Figure S5 Knock-down of CHOP impairs the Bag-1 peptide-mediated increase in apoptosis. The action of the Bag-1 peptide is dependent on CHOP. Pooled clones of 22Rv.1 expressing an empty expression vector (lane 1 to 4) or an HA-tagged Bag-1 peptide (lane 5 to 8) were transfected with control GFP siRNA (lane 1–2 and 5–6) or CHOP siRNA (lane 3–4 and 7–8). After treatment with 300 nM thapsigargin (TG) for 24 h, cells were lysed and Western blot was carried out with anti-PARP, anti-CHOP and anti-HA antibodies. β-actin antibody was used to determine the level of protein loaded on the gel. (TIF) Click here for additional data file.
Supplementary file pone.0045690.s006.tif: Figure S6 Overexpression of the Bag-1 peptide increases Capase-7 cleavage and JNK expression. 22Rv.1 cells stably transfected with an empty vector control (lane 1–2) or a plasmid encoding an HA-tagged Bag-1 peptide (lane 3–4) were treated with 300 nM thapsigargin (TG) for 24 h and harvested for Western blot anaysis. Specific antibodies against JNK (Cell Signaling, Frankfurt am Main, Germany), cleaved Caspase-7 (Cell Signaling, Frankfurt am Main, Germany), HA (HAA.11 clone 16B12, Covance, Munich, Germany) or β-actin (Sigma, Steinheim, Germany) were used in the experiment. (TIF) Click here for additional data file.

Molecule | DU145 growth in clonogenic assay (DU145 cells) | interaction with GADD45 (GADD45) | PARP cleavage, GFP siRNA control, no ER stress (22Rv.1 cells; 22Rv.1 cells expressing Bag-1 peptide vs vector, no ER stress) | PARP cleavage, GRP78/BiP knock-down (22Rv.1 cells; 22Rv.1 cells transfected with GRP78/BiP siRNA, Bag-1 peptide vs vector) | caspase 4 and PARP cleavage, no ER stress (22Rv.1 cells; 22Rv.1 cells, no stressor, vs vector control) | CHOP expression and PARP cleavage (22Rv.1 cells; 22Rv.1 cells, thapsigargin 300 nM 24 h, Bag-1 peptide vs vector control) | JNK expression and caspase 7 cleavage (22Rv.1 cells; 22Rv.1 cells, thapsigargin 300 nM 24 h, vs vector control) | PARP cleavage after CHOP siRNA knockdown (22Rv.1 cells; 22Rv.1 cells, thapsigargin 300 nM 24 h, both vector and peptide cell lines) | caspase 4 expression and PARP cleavage, with ER stress (22Rv.1 cells; 22Rv.1 cells, thapsigargin or glucose starvation 24 h, vs vector control)
19-mer: Bag-1L 202–220 (TPLSALGIQDGCRVMLIGK; not fully specified) | inhibited growth | – | – | – | – | – | – | – | –
Bag-1 peptide: internal sequence of 68 amino acids of Bag-1 (Bag1-L 202–269), HA-tagged, expressed from pcDNA3 (also: HA tag, end not given here) TPLSALGIQDGCRVMLIGKKNSPQEEVELKKLKHLEKSVEKIADQLEELNKELTGIQQGFLPKDLQAE | – | interact with GADD45 | increase in the PARP cleavage even in the absence of ER stress | no difference in the cleavage pattern was further observed | both caspase 4 and PARP cleavage was increased | further enhanced in the cells expressing the Bag-1 peptide | enhanced expression of JNK and caspase 7 cleavage | PARP cleavage was reduced in both cells line | a tremendous increase in caspase 4 expression and PARP cleavage
